Data from the DeepSol protein solubility set.

Assay: soluble on expression in E. coli; label from the status in PepcDB or PDB records

Sequence | soluble on expression in E. coli
GSHMKISEFLHLALPEEQWLPTISGVLRQFAEEECYVYERPPCWYLGKGCQARLHINADGTQATFIDDAGEQKWAVDSIADCARRFMAHPQVKGRRVYGQVGFNFAAHARGIAFNAGEWPLLTLTVPREELIFEKGNVTVYADSADGCRRLCEWVKEASTTTQNAPLAVDTALNGEAYKQQVARAVAEIRRGEYVKVIVSRAIPLPSRIDMPATLLYGRQANTPVRSFMFRQEGREALGFSPELVMSVTGNKVVTEPLAGTRDRMGNPEHNKAKEAELLHDSKEVLEHILSVKEAIAELEAVCLPGSVVVEDLMSVRQRGSVQHLGSGVSGQLAENKDAWDAFTVLFPSITASGIPKNAALNAIMQIEKTPRELYSGAILLLDDTRFDAALVLRSVFQDSQRCWIQAGAGIIAQSTPERELTETREKLASIAPYLMV | soluble
MGSSHHHHHHSSGLVPRGSHMDAETVGRVKRFIQENVFVAANHNGSPLSIKEAPKELSFGARAELPRIHPVASKLLRLMQKKETNLCLSADVSLARELLQLADALGPSICMLKTHVDILNDFTLDVMKELITLAKCHEFLIFEDRKFADIGNTVKKQYEGGIFKIASWADLVNAHVVPGSGVVKGLQEVGLPLHRGCLLIAEMSSTGSLATGDYTRAAVRMAEEHSEFVVGFISGSRVSMKPEFLHLTPGVQLEAGGDNLGQQYNSPQEVIGKRGSDIIIVGRGIISAADRLEAAEMYRKAAWEAYLSRLGV | soluble
MGSDKIHHHHHHMTNRCLYCYEPLVDGEMDYHAKCCRKLFGTPQAPILPYTSSEVRALADEVVRSQTTVTGVQPKLSLDFDQMSNSPKRFTIVGLWGRFILKPQTERYSHLPELEDVSMHLAEIAKIETVPHGLMRFSDGELCYITRRIDRTGQGEKLPMEDMCQLSERLTEYKYKGSHEQVAKLISKYSSVPKLDLVKYWEQVLFSWLIGNADMHLKNYSLYAPEGNEYQLTPAYDLLSTALVIPEDTEELALTLCGKKRKLTRQHFLEAMTASGLDEKVCDNIFARFQHILPEWEACIRQSFLPTEMQRQYIEFILLKFSQI | not soluble
MKMNEEKAVVVFSGGQDSTTCLFWAKKQFGEVEAVTFDYGQRHRREIDVAQAIADELGVRHTVLDLSLLGQLAPNALTRRDIAIEQKEGELPTTFVDGRNLLFLSFAAVFAKQRGARHIVTGVCETDFSGYPDCRDVFIKSLNVTLNLAMDYEFVIHTPLMWLTKAETWKLADELGALEFIRTKTLTCYNGIIADGCGECPACVLRKRGLDEYLREKEGVESR | not soluble
MSLSITVLADIHLDERYIETGSQEVFCRENQDRPEAKYSLPGCDSSESLVDAALASLQKEGPYNVMVVLGDIGPHSSESPEMTQRAIKAIADKLRRLFINKPPEQEMIILPVIGNNDVFPTYAVPTEDGDPQLLFVADQFKDLMTTEGYRQFQRRGYYSVPLSKHRVTFLVINANYYSVRHRELGEDPADQFKWVENQMIEAKAKGYRVILISHIPFGVNVYDESEALHSQYTDRIRSILRRYASTVLACLYGHYHSAYPLVLSAGEEPLVPMFICPSIAPSNYNNPGYYVFHISPLHEVDYDHYALNIEAANMQHREMHNSTELASFDCLYRFSQRYRPWLGLRALPTAQNIAHLYEHMLNDDFVWYQVRAATTSMLSERRLDFLQMAVDKAFMDAYNLSNEGHHHHHH | soluble
MGDVSKLSSNQVKLLETAFRDFETPEGSGRVSTDQIGIILEVLGIQQTKSTIRQLIDEFDPFGNGDIDFDSFKIIGARFLGEEVNPEQMQQELREAFRLYDKEGNGYISTDVMREILAELDETLSSEDLDAMIDEIDADGSGTVDFEEFMGVMTGGDE | soluble
MSFKVKNQSKHLYSLMTKFKRSQLILKHQSNNFASELWNEEDIIRSKQFIELIEDTLLHLKKDTVDFIYDIFIYGKKPCDISYSNSTYYKKLNKAANSFFDHFVWEAPIYKTKELKNDNSHS | soluble
FSDTLEESSPIAAIFDTENLEKISITEGIERGIVDSITGQRLLEAQACTGGIIHPTTGQKLSLQDAVSQGVIDQDMATRLKPAQKAFIGFEGVKGKKKMSAAEAVKEKWLPYEAGQRFLEFQYLTGGLVDPEVHGRISTEEAIRKGFIDGRAAQRLQDTSSYAKILTCPKTKLKISYKDAINRSMVEDITGLRLLEAASVSSKGLPSPYNMSSA | soluble
VRRDRAPPERGGAGTSQDGTSKNWFKITIPYGRKYDKAWLLSMIQSKCSVPFTPIEFHYENTRAQFFVEDASTASALKAVNYKILDRENRRISIIINSSAPPHTILNELKPEQVEQLKLIMSKRYDGSQQALDLKGLRSDPDLVAQNIDVVLNRRSSMAATLRIIEENIPELLSLNLSNNRLYRLDDMSSIVQKAPNLKILNLSGNELKSERELDKIKGLKLEELWLDGNSLCDTFRDQSTYISAIRERFPKLLRLDGHELPPPIAFDVEAPTTLPP | soluble
MVRLPPPTPPRKPNICGTSGNSNGINENIDTSTFSVSAAKALFESAKRPEVRNAAIAAAKNPFVRQTAKNVAQDEKARGAVLNAVKDPSGGNKISAAFAVADANRKSDSVPPPPPHRGGTSPGKLSGSHSAIRSQLENMHIGGSVMSSNSSTATPSYQSNSTSSYSSSAPVAPPPVPRHTQSIPSYSAPAISTPYGIAKFDYAPTQSDEMGLRIGDTVLISKKVDAEWFYGENQNQRTFGIVPSSYLDIKIPLKEAFTALPPRPAAPSGSSSGTYATAIYDYNSNEAGDLNFAVGSQIMVTARVNEEWLEGECFGRSGIFPSQFVDCPNLYQVPMKQSAPSSAPSYSHPITNNSGPKQTVTVSYDYDSGVASDLRLFEGDVITALEDIDAQWLLAECRGQQGMVPKTFLGPPYGSPKKAPSKGIAEIACAFSPKKAVATGDYHSEDPKHLYVTRGDHLLIVEDVDDYYYKGKLEAFKTLPAGILPKNIVKLEN | not soluble
MGSDKIHHHHHHMKKFYDEMHASGDKVREHYAGYERWLAQQPHESMKGHRDEAEMIFRRVGITFAVYGAKDEDGSGTERLIPFDLIPRIIPAQEWREMEKGLRQRVNALNRFIHDVYHDQEIIKAGIVPGEQVFKNAQFRPEMMGVDVPGNVYSQIAGIDIVRAANPDGSGNYYVLEDNLRVPSGVSYMLENRKMMMRLFPELFSSHRVAPVAHYPDLLLDTLRAVAPPGVAEPTVVVMTPGMYNSAYFEHAFLAQQMGVELVEGQDLFVKDNYLYMRTTQGPRRVDVIYRRIDDDFLDPKAFRADSTIGCAGLLSVYRAGNVNLCNAIGTGVADDKSIYPYVPKMIEFYLGEKPILNNVPTYLCRESEDLQYVLAHLGELVVKEVHGAGGYGMLVGPAASKAEIEEFRTQLVANPSNYIAQPTLALSTCPTFVESGIAPRHIDLRPFVLSGKTVQMVPGGLTRVALKEGSLVVNSSQGGGTKDTWMLEA | not soluble
MGSDKIHHHHHHGEYNKLLKSTDYEYKYEAAKNYFAKGQYNRSATLLNELITILKGTDKAEESLYMLGMSYYNQKDYQTAAQTFITYFNTYPRGTFTELARFHAGKSLFLDTPEPRLDQSSTYQAIQQLQMFMEYFPNSTKKQEAQDMIFALQDKLVLKELYSAKLYYNLGNYLGNNYESCVITAQNALKDYPYTDYREELSILILRARHEMAIYSVEDKKMDRYRETIDEYYAFKNEFPESKYLKEAEKIFNESQKVIKD | not soluble
GPGSSAHAPEGKRATKTELGSTSLYVRVGQLTNLRRHPDADRLYVEDMVLGDETRTIVSGLVESYAIEELEGTQCLVVCNMKPKSLMGVTSQGMVLCAKRDTEVKLIRPPAGAKPGDRILFGASYDAAIAAAAPPEPISSNKMSEVLSHLHTNADSVLCWKDEPARHPSGAAVAIADMANCPVS | soluble
MGSDKIHHHHHHMASHLTDGVIHATTRAASLHWCIAQATKTDGALNGDGYLLKRDEDTLLFALADGVGSGQLAHDASSACLRILAASDDMDLPSLFETCHTQLTSTRGAALGLVKFFLGQGFLEWAAVGDIEGCIYPTEPTSSRTISMMQRGGTLGHYFTGITPQQHAWPPTSMLALCTDGVSRKFRERHPNDQAPREFADSCFNDFGRDNDDRTLATFSWTQEGT | not soluble
MNIKLYYVHDPMCSWCWGYKPTIEKLKQQLPGVIQFEYVVGGLAPDTNLPMPPEMQQKLEGIWKQIETQLGTKFNYDFWKLCTPVRSTYQSCRAVIAAGFQDSYEQMLEAIQHAYYLRAMPPHEEATHLQLAKEIGLNVQQFKNDMDGTLLEGVFQDQLSLAKSLGVNSYPSLVLQINDAYFPIEVDYLSTEPTLKLIRERIIENMSAQ | soluble
MYIGIDLGTSGVKVILLNEQGEVVAAQTEKLTVSRPHPLWSEQDPEQWWQATDRAMKALGDQHSLQDVKALGIAGQMHGATLLDAQQRVLRPAILWNDGRCAQECTLLEARVPQSRVITGNLMMPGFTAPKLLWVQRHEPEIFRQIDKVLLPKDYLRLRMTGEFASDMSDAAGTMWLDVAKRDWSDVMLQACDLSRDQMPALYEGSEITGALLPEVAKAWGMATVPVVAGGGDNAAGAVGVGMVDANQAMLSLGTSGVYFAVSEGFLSKPESAVHSFCHALPQRWHLMSVMLSAASCLDWAAKLTGLSNVPALIAAAQQADESAEPVWFLPYLSGERTPHNNPQAKGVFFGLTHQHGPNELARAVLEGVGYALADGMDVVHACGIKPQSVTLIGGGARSEYWRQMLADISGQQLDYRTGGDVGPALGAARLAQIAANPEKSLIELLPQLPLEQSHLPDAQRYAAYQPRRETFRRLYQQLLPLMA | soluble
MGSDKIHHHHHHMINLKELKILHTSDWHLGVTSWTSSRPVDRREELKKALDKVVEEAEKREVDLILLTGDLLHSRNNPSVVALHDLLDYLKRMMRTAPVVVLPGNHDWKGLKLFGNFVTSISSDITFVMSFEPVDVEAKRGQKVRILPFPYPDESEALRKNEGDFRFFLESRLNKLYEEALKKEDFAIFMGHFTVEGLAGYAGIEQGREIIINRALIPSVVDYAALGHIHSFREIQKQPLTIYPGSLIRIDFGEEADEKGAVFVELKRGEPPRYERIDASPLPLKTLYYKKIDTSALKSIRDFCRNFPGYVRVVYEEDSGILPDLMGEIDNLVKIERKSRREIEEVLRESPEEFKEELDKLDYFELFKEYLKKREENHEKLLKILDELLDEVKKSEA | not soluble
MEARPRVAGIVLAAGKSTRMGRPKQLLPFRGRTVLECVVDNALASRLHRVVVVLGHEAEAVMPLLGHRCVTTVVNPLYGEGQSSSLKAGLGAMTEETDAALFLLGDQPLVTADTINLLIAAFADFPSPIVIPTFEGHRGNPVLFSRETFPRIEALSGDRGARGLFREYGDDIRSIDVRTPAILFDLDTEEDYLRLLREFPAVLEHHHHHH | not soluble
MINTMTLDNGVRIITEKMSTVRSVSIGIWVGTGSRYESAEENGISHFLEHMFFKGTNTRSAQEIAEFFDSIGGQVNAFTSKEYTCYYAKVLDDHAGQAIDTLSDMFFHSTFQKEELEKERKVVFEEIKMVDDTPDDIVHDLLSSATYGKHSLGYPILGTVETLNSFNEGMLRHYMDRFYTGDYVVISVAGNVHDELIDKIKETFSQVKPTTYNYQGEKPMFLPNRIVRKKETEQAHLCLGYPGLPIGDKDVYALVLLNNVLGGSMSSRLFQDIREKRGLCYSVFSYHSSFRDSGMLTIYAGTGHDQLDDLVYSIQETTSALAEKGLTEKELENGKEQLKGSLMLSLESTNSRMSRNGKNELLLKKHRSLDEMIEQINAVQKQDVSRLAKILLSASPSISLINANGELPKALIHLEHHHHHH | soluble
